The text below walks through data of paper PMC4975481, “Importance of Hypervariable Region 2 for Stability and Affinity of a Shark Single-Domain Antibody Specific for Ebola Virus Nucleoprotein” (PLoS ONE, 2016).

In the assay the target is T1, Ebola virus Viral Protein 40 (Ebola virus (Zaire ebolavirus), strain …, UniProt Q05128).
T1 construct: also called VP40; VP 40; source: bought: IBT Bioservices
The experiment in a line: SPR. The note with it: both partners purified.

T1 sequence (Q05128 whole entry): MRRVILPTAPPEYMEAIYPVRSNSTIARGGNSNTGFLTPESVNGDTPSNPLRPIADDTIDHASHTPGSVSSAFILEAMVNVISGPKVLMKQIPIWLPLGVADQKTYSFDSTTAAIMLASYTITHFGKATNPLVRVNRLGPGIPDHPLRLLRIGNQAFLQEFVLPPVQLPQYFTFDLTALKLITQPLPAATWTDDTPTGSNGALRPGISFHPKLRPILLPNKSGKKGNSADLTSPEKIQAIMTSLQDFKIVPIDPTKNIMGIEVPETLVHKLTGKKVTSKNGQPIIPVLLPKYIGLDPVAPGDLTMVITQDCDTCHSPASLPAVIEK

B1: shark096 (VHH)
VHH: RVDQTPRSVTKETGESLTINCVLRDASYAVGSTCWYRKKSGSTNEESISKGGRYVETVNSGSKSFSLRINDLTVEDGGTYRCGVSTYNWCGVRGLGCVHGACGDGTAVTVN
notes: also called unfused sdAb portion of DSTL096; parental sdAb
In the case of B1, the binding result is “no binding”.
